{"source": "paper PMC5339670", "about": "(The Journal of Experimental Medicine, 2017)", "binders": {"B1": {"name": "GST fusion protein of the Skap2 SH3 domain (domain or fragment, mouse, UniProt Q3UND0 296-357, looked up)", "chain": "DYANFYQGLWDCTGALSDELSFKRGDVIYILSKEYNRYGWWVGEMKGAIGLVPKAYLMEMYD"}}, "biological_target": "T1, Recombinant His-tagged WASp (mouse, UniProt P70315 1-520)", "T1 sequence (looked up)": "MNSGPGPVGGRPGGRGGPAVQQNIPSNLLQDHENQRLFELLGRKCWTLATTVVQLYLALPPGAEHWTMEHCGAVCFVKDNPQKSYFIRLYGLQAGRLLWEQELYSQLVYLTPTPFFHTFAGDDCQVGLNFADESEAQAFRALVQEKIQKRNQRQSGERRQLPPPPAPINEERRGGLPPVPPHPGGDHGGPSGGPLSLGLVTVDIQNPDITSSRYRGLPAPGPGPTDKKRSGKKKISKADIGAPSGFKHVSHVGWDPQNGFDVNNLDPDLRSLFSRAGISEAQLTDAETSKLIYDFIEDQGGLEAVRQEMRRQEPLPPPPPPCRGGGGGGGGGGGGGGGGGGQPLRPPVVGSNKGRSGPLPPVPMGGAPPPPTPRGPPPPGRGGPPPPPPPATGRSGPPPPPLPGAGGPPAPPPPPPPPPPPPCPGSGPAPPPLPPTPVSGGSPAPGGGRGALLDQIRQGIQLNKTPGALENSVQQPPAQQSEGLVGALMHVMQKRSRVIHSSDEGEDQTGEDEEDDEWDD", "experiment": "pull-down"}
{"binder": "B1", "values": [{"measurement": "binding result", "result": "binds"}]}
